# B1: SEQ ID NO: 71 (RSV434), trivalent polypeptide consisting of three anti-hRSV immunoglobulin single variable domains (VHH)
# chain: DVQLVESGGGLVQAGGSLSISCAASGGSLSNYVLGWFRQAPGKEREFVAAINWRGDITIGPPNVEGRFTISRDNAKNTGYLQMNSLAPDDTAVYYCGAGTPLNPGAYIYDWSYDYWGRGTQVTVSSGGGGSGGGGSGGGGSEVQLVESGGGLVQAGGSLSISCAASGGSLSNYVLGWFRQAPGKEREFVAAINWRGDITIGPPNVEGRFTISRDNAKNTGYLQMNSLAPDDTAVYYCGAGTPLNPGAYIYDWSYDYWGRGTQVTVSSGGGGSGGGGSGGGGSEVQLVESGGGLVQAGGSLSISCAASGGSLSNYVLGWFRQAPGKEREFVAAINWRGDITIGPPNVEGRFTISRDNAKNTGYLQMNSLAPDDTAVYYCGAGTPLNPGAYIYDWSYDYWGRGTQVTVSS
# Biological target: F protein (fusion glycoprotein) of hRSV, Memphis 37 strain (human respiratory syncytial virus, …)
# Assay: cell-based or functional assay
binder,measurement,value
B1,sensitivity in in vitro neutralization relative to RSV-B 18537,~6 fold

# Source: US20170304566A1 (Ablynx, published 2017)
